Test results as given in article PMC7522779.

Biological target: Pex14p-S266D, Gal4p fusion protein for yeast two-hybrid (S. cerevisiae) (UniProt P53112)
Assay: two-hybrid; liquid ß-galactosidase assay with 2-nitrophenyl β-D-galactopyranoside; GAL4 BD and AD fusions in strain PCY2 pex14Δ; triplicate measurements of three independent transformants

Chain of UniProt P53112 (P53112 whole entry S266D, the tested form may be a part): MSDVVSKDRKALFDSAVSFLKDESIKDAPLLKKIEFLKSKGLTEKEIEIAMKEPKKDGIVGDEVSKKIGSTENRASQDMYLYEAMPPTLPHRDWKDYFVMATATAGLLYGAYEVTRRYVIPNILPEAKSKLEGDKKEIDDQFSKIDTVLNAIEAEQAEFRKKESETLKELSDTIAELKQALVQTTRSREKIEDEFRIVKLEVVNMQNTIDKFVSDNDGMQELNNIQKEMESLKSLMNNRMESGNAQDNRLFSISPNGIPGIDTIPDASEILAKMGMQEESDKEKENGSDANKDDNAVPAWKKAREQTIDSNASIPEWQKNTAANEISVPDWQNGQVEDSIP

Pex13p, Gal4p fusion protein for yeast two-hybrid (from UniProt P80667 1-386) (natural protein)
binding as percent of wild-type level (ß-galactosidase activity) (% of wild-type levels): < 50
